Kd data for one molecule are collected here from patent JP2023550785A (dated 2023).

Experiment [1] concerns the target T1, HCoV-HKU1 prefusion-stabilized spike (S) protein / S ectodomain trimer (human coronavirus HKU1, UniProt Q5MQD0 13-1300).
T1 sequence: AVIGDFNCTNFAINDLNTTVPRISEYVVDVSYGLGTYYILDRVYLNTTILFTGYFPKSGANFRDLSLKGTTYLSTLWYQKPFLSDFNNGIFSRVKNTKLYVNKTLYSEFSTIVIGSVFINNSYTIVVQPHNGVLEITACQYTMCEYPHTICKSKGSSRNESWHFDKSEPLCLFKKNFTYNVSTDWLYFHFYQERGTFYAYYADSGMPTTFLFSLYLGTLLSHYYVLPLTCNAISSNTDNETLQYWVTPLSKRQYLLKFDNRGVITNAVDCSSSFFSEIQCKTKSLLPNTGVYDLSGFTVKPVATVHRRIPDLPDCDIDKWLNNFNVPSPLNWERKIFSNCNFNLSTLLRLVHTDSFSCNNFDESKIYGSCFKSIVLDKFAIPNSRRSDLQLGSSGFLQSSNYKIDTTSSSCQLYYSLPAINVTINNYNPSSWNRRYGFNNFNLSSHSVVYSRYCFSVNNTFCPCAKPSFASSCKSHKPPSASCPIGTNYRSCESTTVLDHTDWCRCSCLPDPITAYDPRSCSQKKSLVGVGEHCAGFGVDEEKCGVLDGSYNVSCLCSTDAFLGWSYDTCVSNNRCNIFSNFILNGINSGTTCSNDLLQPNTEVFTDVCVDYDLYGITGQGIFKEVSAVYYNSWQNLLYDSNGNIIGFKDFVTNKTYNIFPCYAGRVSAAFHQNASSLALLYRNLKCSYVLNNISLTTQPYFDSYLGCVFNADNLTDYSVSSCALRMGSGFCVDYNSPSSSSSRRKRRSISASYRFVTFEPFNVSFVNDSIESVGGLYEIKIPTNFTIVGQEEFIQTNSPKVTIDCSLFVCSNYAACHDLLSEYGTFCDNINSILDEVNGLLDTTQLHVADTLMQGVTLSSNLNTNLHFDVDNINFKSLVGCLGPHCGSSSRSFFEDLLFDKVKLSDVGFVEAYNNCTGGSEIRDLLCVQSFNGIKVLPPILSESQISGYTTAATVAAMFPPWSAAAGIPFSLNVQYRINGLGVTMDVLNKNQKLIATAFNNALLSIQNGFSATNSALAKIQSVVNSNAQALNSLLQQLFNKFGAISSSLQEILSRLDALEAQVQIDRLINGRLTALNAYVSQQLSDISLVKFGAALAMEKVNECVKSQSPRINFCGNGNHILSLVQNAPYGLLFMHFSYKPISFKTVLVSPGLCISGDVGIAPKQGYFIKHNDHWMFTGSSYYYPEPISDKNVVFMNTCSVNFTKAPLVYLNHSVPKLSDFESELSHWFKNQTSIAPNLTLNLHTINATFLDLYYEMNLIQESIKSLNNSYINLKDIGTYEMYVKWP

In experiment [2] the target is T2, MERS-CoV (London1/2012) prefusion-stabilized spike (S) protein / S ectodomain trimer (MERS-CoV (London1/2012), UniProt K9N5Q8 18-1296).
T2 sequence: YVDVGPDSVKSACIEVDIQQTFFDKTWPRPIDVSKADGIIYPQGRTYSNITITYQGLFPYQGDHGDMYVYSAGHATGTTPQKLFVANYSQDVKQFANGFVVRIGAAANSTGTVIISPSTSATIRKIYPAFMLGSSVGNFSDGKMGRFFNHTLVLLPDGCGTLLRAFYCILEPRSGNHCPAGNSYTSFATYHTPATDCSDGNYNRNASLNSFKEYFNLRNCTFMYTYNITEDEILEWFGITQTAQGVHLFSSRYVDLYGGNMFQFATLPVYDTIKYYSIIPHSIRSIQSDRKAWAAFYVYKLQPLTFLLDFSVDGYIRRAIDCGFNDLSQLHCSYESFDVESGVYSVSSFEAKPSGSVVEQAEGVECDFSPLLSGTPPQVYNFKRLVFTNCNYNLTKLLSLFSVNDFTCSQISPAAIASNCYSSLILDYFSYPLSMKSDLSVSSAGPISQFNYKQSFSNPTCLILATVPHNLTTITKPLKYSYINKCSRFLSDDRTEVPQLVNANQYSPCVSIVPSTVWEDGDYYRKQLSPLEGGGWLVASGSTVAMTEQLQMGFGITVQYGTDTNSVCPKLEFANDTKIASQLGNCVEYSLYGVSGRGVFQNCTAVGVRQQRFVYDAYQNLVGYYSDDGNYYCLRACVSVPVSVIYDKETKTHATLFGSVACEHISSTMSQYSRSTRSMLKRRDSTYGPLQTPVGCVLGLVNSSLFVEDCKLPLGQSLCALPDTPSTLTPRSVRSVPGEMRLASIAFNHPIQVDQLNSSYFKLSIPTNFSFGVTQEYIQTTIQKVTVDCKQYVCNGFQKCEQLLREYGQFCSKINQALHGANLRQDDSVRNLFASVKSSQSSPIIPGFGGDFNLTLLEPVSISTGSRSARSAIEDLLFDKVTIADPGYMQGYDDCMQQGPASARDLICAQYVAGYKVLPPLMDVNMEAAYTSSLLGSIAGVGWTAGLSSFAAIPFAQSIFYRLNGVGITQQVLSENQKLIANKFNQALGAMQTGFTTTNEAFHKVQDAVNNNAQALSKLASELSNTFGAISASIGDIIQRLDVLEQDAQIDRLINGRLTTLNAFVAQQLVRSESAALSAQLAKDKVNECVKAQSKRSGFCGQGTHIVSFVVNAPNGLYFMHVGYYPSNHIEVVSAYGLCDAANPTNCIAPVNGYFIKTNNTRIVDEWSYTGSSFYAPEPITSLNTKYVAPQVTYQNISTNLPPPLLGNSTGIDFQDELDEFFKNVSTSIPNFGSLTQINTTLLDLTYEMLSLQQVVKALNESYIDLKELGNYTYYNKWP

Experiment [3] has as its target SARS-CoV (Urbani strain) prefusion-stabilized spike (S) protein / S ectodomain trimer (SARS-CoV (Urbani strain), UniProt P59594 14-1195). Description: SPR (Biacore T200), S ectodomain trimer captured, Fab as analyte.

B1: S2P6 Fab fragment (Fab, V domains shown)
VH: EVQLVQSGAEVKKPGASVKVSCKASGYTFTSQYMHWVRQAPGQGLEWIGIINPSGVHTSYAQKFQGRVTLTRDTSTSTLYMELSSLRSEDTAVYYCARGSPKGAFDYWGQGTLVTVSS
VL: not shown
Regarding B1, the Kd in experiment [1] is ~120 nM; in experiment [2], 12 nM; in experiment [3] it was 7 nM.
